Data on one molecule can be found in patent publication US7309578B2, “Therapeutic treatment of chronic obstructive pulmonary disease” (The Trustees of Columbia University in the City of New York, priority 2000, dated 2007).

The subject of experiment [1] is small airway epithelial cells, lung microvascular endothelial cells, lung fibroblasts. Nature of the experiment: Transfection of lung cells with a sFrp1 expression vector, Annexin-V-Biotin assay. In kind it is cell-based, human. The settings on record: for apoptosis-inducing activity on transfection: normal human primary lung epithelial, endothelial and fibroblast cells transfected with sFrp1-Gfp expression vector. From the text: (§1) Transfection of Lung Cells with a sFrp1 Expression Vector: The mouse sFrp1 full length cDNA was generously provided by Drs. Jeremy Nathans and Amir Rattner, John Hopkins University, Baltimore, and subcloned into a pCMS-EGFP vector (Clontech, Palo Alto, Calif.). A gene of sFrp1w&s inserted into the multiple cloning site at EcoRI and Sail sites between the cytomegalovirus early promoter and SV40 polyadenilation signals, which direct proper processing of the 3′ end of sFrp1 mRNA. The vector also has a Gfp (green fluorescent protein) gene located in downstream of the sFrp1-SV40 polyadenilation signals and ligated between the SV40 enhancer/promoter sequence and a polyadenylation signal from the bovine growth hormone gene. This vector construct allows transcriptions of sFrp1 and Gfp as separate proteins in transfected cells. Normal human primary cultured cells of small airway epithelial cells (SAEC 6043), lung microvascular endothelial cells (HMVEC L 6521-3), and lung fibroblasts (NHLF 5975) were obtained from BioWhittaker (Walkersville, Md.) and cultured in proper media containing 10% fetal bovine serum. Cells were plated 2 days before transfection in 4-well LabTek II chamber (Nalge Nunc International, Naperville, Ill.) at 2×10^4 cells/chamber and incubated at 37*C in 5% COj incubator. The sFrp1-Gjp expression vector or Gfp vector without sFrp gene (0.8 ujj) were transfected into cells using Lipofectaniine PLUS according to the manufacture's instruction (Gibco BRL). For Annexin-V-Biotin assay (Roche Diagnostics GmbH, Manheim, Germany), ceils were harvested at 72, 48, 24, 12 or 6 h after transfection and the reaction was detected by ExtraAvidin-Cy3 (Sigma). For caspase 3 activation assay, cells were fixed in 3% paraformaldehyde in PBS after 24 or 48 h of transfection and incubated with anti-human active caspase 3 antibody made by rabbit (x100, clone 9661. Cell Signaling Technology, Beverly, Mass.). Biotinylated goat IgG to rabbit IgG (Vector) and ExtraAvidin-Cy3 (Sigma) were used for detection of binding of a primary antibody.

For experiment [2] the test system is unchanged. The experiment can be described thus: Transfection of lung cells with a sFrp1 expression vector, caspase 3 activation assay (immunostaining). In kind it is cell-based, human. The settings on record: 24 or 48 h after transfection.
Excerpt: as §1, with “Cells were plated 2 days before transfection in 4-well LabTek II chamber (Nalge Nunc International, Naperville, Ill.) at 2×10^4 cells/chamber and incubated at 37*C in 5% COj incubator. The sFrp1-Gjp expression vector or Gfp vector without sFrp gene (0.8 ujj) were transfected into cells using Lipofectaniine PLUS according to the manufacture's instruction (Gibco BRL).” left out, “For caspase 3 activation assay, cells were fixed in 3% paraformaldehyde in PBS after 24 or 48 h of transfection and incubated with anti-human active caspase 3 antibody made by rabbit (x100, clone 9661. Cell Signaling Technology, Beverly, Mass.). Biotinylated goat IgG to rabbit IgG (Vector) and ExtraAvidin-Cy3 (Sigma) were used for detection of binding of a primary antibody.” left out

B1: sFrp1: mouse secreted frizzled-related protein 1, expressed from full length cDNA in a pCMS-EGFP vector transfected into cells (protein, UniProt Q8C4U3 1-314, looked up)
chain: MGVGRSARGRGGAASGVLLALAAALLAAGSASEYDYVSFQSDIGSYQSGRFYTKPPQCVDIPVDLRLCHNVGYKKMVLPNLLEHETMAEVKQQASSWVPLLNKNCHMGTQVFLCSLFAPVCLDRPIYPCRWLCEAVRDSCEPVMQFFGFYWPEMLKCDKFPEGDVCIAMTPPNTTEASKPQGTTVCPPCDNELKSEAIIEHLCASEFALRMKIKEVKKENGDKKIVPKKKKPLKLGPIKKKELKRLVLFLKNGADCPCHQLDNLSHNFLIMGRKVKSQYLLTAIHKWDKKNKEFKNFMKRMKNHECPTFQSVFK
modifications: full-length
notes: mouse secreted frizzled-related protein 1, expressed from full length cDNA in a pCMS-EGFP vector transfected into cells
Consider B1, for which the “phosphatidylserine exposure to the outer cell membrane (annexin V assay)” value in experiment [1] (6-72 h after transfection, data not shown) is “time- and dose-dependency of cell death to sFrp1 expression”. Moreover, the “apoptosis-inducing activity on transfection” value in experiment [1] was “apoptosis-inducing activity of sFrp1 without preference of cell-type examined”; in experiment [1] (listed as sFRP-1) it was “leads to apoptosis in lung epithelial cells, endothelial cells and fibroblasts”. The “active caspase 3 immunostaining” value in experiment [2] was “presence of acive caspase 3 in and surrounding cells transfected sFrp1”.
